Laboratory results published in article PMC2756588.

Assays:
Assay in all cases: SPOT array
[1] = biological target: T1, Bbc1, P47068; conditions: median of control spots 796
T1 sequence (P47068 1-78, looked up): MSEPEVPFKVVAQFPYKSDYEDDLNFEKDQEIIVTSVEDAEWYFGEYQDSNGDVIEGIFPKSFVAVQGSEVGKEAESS

[2] = biological target: Sho1, P40073; conditions: median of control spots 1148
[3] = biological target: T2, Bud14, P27637; conditions: median of control spots 956
T2 sequence (P27637 247-328, looked up): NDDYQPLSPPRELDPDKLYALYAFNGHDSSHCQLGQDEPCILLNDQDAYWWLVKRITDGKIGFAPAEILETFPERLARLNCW

[4] = biological target: Bem1-1, P29366; conditions: median of control spots 4282
[5] = biological target: Myo3, P36006; conditions: median of control spots 468
[6] = biological target: T3, Bzz1-2, P38822; conditions: median of control spots 4538
T3 sequence (P38822 568-633, looked up): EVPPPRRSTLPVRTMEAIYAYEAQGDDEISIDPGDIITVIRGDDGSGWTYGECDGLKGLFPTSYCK

[7] = biological target: T4, Hse1, P38753; conditions: median of control spots 1727
T4 sequence (P38753 208-285, looked up): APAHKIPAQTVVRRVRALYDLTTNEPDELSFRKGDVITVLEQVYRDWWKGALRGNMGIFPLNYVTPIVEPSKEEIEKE

[8] = biological target: T5, Pex13, P80667; conditions: median of control spots 1341
T5 sequence (P80667 295-386, looked up): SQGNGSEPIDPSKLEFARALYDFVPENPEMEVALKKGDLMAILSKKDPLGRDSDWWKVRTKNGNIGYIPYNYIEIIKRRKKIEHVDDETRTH

[9] = biological target: T6, Lsb1, P53281; conditions: median of control spots 388
T6 sequence (P53281 45-122, looked up): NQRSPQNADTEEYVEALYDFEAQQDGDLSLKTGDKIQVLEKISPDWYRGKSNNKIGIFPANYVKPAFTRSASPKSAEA

[10] = biological target: T7, Cyk3, Q07533; conditions: median of control spots 1451
T7 sequence (Q07533 1-83, looked up): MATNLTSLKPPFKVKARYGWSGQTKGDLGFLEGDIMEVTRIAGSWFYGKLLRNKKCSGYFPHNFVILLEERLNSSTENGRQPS

[11] = biological target: T8, Fus1, P11710; conditions: median of control spots 1200
T8 sequence (P11710 432-512, looked up): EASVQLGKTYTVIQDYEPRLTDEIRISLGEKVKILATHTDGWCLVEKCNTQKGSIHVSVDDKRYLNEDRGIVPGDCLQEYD

[12] = biological target: T9, Boi1, P38041; conditions: median of control spots 1162
T9 sequence (P38041 1-86, looked up): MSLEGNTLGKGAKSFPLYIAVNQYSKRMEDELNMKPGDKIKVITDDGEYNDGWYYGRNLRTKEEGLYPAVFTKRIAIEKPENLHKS

[13] = biological target: T10, Sla1-3, P32790; conditions: median of control spots 5475
T10 sequence (P32790 344-424, looked up): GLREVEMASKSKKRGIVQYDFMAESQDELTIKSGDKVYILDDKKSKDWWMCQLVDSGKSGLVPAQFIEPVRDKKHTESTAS

[14] = biological target: T11, Nbp2, Q12163; conditions: median of control spots 357
T11 sequence (Q12163 103-180, looked up): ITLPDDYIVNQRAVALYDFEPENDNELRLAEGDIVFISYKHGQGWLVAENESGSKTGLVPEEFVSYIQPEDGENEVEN

[15] = biological target: T12, Cdc25, P04821; conditions: median of control spots 969
T12 sequence (P04821 50-136, looked up): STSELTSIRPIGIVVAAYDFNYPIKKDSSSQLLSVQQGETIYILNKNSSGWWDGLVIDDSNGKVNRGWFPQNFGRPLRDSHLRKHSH

[16] = biological target: T13, Hof1, Q05080; conditions: median of control spots 4086
T13 sequence (Q05080 590-669, looked up): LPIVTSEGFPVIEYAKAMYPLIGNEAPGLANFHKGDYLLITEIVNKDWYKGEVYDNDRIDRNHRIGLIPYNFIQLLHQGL

[17] = biological target: T14, Boi2, P39969; conditions: median of control spots 1161
T14 sequence (P39969 32-116, looked up): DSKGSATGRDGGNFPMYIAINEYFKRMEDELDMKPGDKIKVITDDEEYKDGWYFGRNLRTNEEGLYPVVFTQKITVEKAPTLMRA

[18] = biological target: T15, Lsb3, P43603; conditions: median of control spots 406
T15 sequence (P43603 385-451, looked up): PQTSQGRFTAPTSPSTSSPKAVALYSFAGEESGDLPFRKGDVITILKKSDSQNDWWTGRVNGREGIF

[19] = biological target: T16, Pin3, Q06449; conditions: median of control spots 2171
T16 sequence (Q06449 53-122, looked up): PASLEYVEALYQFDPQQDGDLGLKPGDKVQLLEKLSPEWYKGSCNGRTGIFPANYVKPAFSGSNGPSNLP

[20] = biological target: T17, Abp1, P15891; conditions: median of control spots 935
T17 sequence (P15891 535-592, looked up): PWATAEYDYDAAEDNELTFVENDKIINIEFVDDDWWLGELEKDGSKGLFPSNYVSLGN

[21] = biological target: Rvs167, P39743; conditions: median of control spots 2707
[22] = biological target: Bem1-2, P29366; conditions: median of control spots 4347
[23] = biological target: T18, Lsb4, P32793; conditions: median of control spots 397
T18 sequence (P32793 402-468, looked up): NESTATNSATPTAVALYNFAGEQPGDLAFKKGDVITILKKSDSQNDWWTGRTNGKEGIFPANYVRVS

[24] = biological target: GST; conditions: median of control spots 978
[25] = biological target: T19, Myo5, Q04439; conditions: median of control spots 471
T19 sequence (Q04439 1072-1160, looked up): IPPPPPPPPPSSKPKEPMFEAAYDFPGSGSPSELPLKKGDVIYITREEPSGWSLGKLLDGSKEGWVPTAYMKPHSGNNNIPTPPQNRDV

[26] = biological target: T20, Sla1-2, P32790; conditions: median of control spots 712
T20 sequence (P32790 60-140, looked up): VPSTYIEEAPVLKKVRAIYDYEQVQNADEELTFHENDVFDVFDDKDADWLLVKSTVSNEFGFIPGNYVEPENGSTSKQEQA

[27] = biological target: T21, Bzz1-1, P38822; conditions: median of control spots 4446
T21 sequence (P38822 478-572, looked up): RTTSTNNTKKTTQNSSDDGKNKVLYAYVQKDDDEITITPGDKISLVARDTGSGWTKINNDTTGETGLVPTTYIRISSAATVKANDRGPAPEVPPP

Chain of Bem1-1, P29366 (P29366 55-141): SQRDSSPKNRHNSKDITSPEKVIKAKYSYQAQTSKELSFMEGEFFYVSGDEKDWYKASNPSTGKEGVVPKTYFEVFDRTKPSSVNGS
Chain of Bem1-2, P29366 (P29366 139-227): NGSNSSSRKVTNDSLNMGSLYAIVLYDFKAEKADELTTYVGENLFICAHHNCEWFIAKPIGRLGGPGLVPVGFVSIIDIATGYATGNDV
Chain of Rvs167, P39743 (P39743 419-482): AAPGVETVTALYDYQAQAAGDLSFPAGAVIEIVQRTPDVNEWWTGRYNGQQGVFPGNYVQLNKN
Chain of Sho1, P40073 (P40073 287-367): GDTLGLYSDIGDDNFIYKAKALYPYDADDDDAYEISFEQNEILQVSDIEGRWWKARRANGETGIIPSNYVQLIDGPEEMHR

B1: unnamed (peptide)
chain: HVRRSILALPLGVLL
Binder B1 has an SPOT intensity [1] of 1, an SPOT intensity [2] of 35 and an SPOT intensity [3] of 14. The SPOT intensity [4] was 0, the SPOT intensity [5] was 3 and the SPOT intensity [6] was 0. The SPOT intensity [7] was 0, the SPOT intensity [8] was 3 and the SPOT intensity [9] was 47. For the same binder, the SPOT intensity [10] was 2, the SPOT intensity [11] was 16 and the SPOT intensity [12] was 3. It also gave an SPOT intensity [13] of 0, an SPOT intensity [14] of 0 and an SPOT intensity [15] of 20. It also gave an SPOT intensity [16] of 0, an SPOT intensity [17] of 1 and an SPOT intensity [18] of 0. For the same binder, the SPOT intensity [19] was 2, the SPOT intensity [20] was 23 and the SPOT intensity [21] was 2. For the same binder, the SPOT intensity [22] was 0, the SPOT intensity [23] was 4 and the SPOT intensity [24] was 0. It also gave an SPOT intensity [25] of 1, an SPOT intensity [26] of 0 and an SPOT intensity [27] of 0.

B2: unnamed (peptide)
chain: RVTRKRPREPKSTND
In the case of B2, the SPOT intensity [1] is reported as 217, the SPOT intensity [2] is reported as 173 and the SPOT intensity [3] is reported as 9. For the same binder, the SPOT intensity [4] was 2, the SPOT intensity [5] was 19 and the SPOT intensity [6] was 11. For the same binder, the SPOT intensity [7] was 12, the SPOT intensity [8] was 0 and the SPOT intensity [9] was 9. It also gave an SPOT intensity [10] of 4, an SPOT intensity [11] of 34 and an SPOT intensity [12] of 10. For the same binder, the SPOT intensity [13] was 47, the SPOT intensity [14] was 40 and the SPOT intensity [15] was 28. It also gave an SPOT intensity [16] of 3, an SPOT intensity [17] of 2 and an SPOT intensity [18] of 5. The SPOT intensity [19] was 3, the SPOT intensity [20] was 167 and the SPOT intensity [21] was 0. It also gave an SPOT intensity [22] of 0, an SPOT intensity [23] of 10 and an SPOT intensity [24] of 2. The SPOT intensity [25] was 3, the SPOT intensity [26] was 2 and the SPOT intensity [27] was 0.

B3: unnamed (peptide)
chain: IKTRSVPKIPSIESV
B3 was tested, and the SPOT intensity [1] was 10, the SPOT intensity [2] was 4 and the SPOT intensity [3] was 2. It also gave an SPOT intensity [4] of 3, an SPOT intensity [5] of 5 and an SPOT intensity [6] of 2. It also gave an SPOT intensity [7] of 0, an SPOT intensity [8] of 32 and an SPOT intensity [9] of 266. It also gave an SPOT intensity [10] of 0, an SPOT intensity [11] of 0 and an SPOT intensity [12] of 1. For the same binder, the SPOT intensity [13] was 6, the SPOT intensity [14] was 12 and the SPOT intensity [15] was 2. The SPOT intensity [16] was 38, the SPOT intensity [17] was 1 and the SPOT intensity [18] was 257. For the same binder, the SPOT intensity [19] was 15, the SPOT intensity [20] was 9 and the SPOT intensity [21] was 1340. For the same binder, the SPOT intensity [22] was 0, the SPOT intensity [23] was 166 and the SPOT intensity [24] was 0. The SPOT intensity [25] was 0, the SPOT intensity [26] was 1 and the SPOT intensity [27] was 2.

B4: unnamed (peptide)
chain: KIRRSSLMIPNPQQF
B4 gave an SPOT intensity [1] of 13, an SPOT intensity [2] of 47 and an SPOT intensity [3] of 5. For the same binder, the SPOT intensity [4] was 0, the SPOT intensity [5] was 35 and the SPOT intensity [6] was 0. It also gave an SPOT intensity [7] of 1, an SPOT intensity [8] of 30 and an SPOT intensity [9] of 12. For the same binder, the SPOT intensity [10] was 2, the SPOT intensity [11] was 21 and the SPOT intensity [12] was 2. For the same binder, the SPOT intensity [13] was 9, the SPOT intensity [14] was 0 and the SPOT intensity [15] was 12. For the same binder, the SPOT intensity [16] was 0, the SPOT intensity [17] was 1 and the SPOT intensity [18] was 14. For the same binder, the SPOT intensity [19] was 142, the SPOT intensity [20] was 105 and the SPOT intensity [21] was 0. It also gave an SPOT intensity [22] of 3, an SPOT intensity [23] of 3 and an SPOT intensity [24] of 3. For the same binder, the SPOT intensity [25] was 11, the SPOT intensity [26] was 4 and the SPOT intensity [27] was 1.

B5: unnamed (peptide)
chain: FIRKRAPTPPAPSRS
B5 was tested, and the SPOT intensity [1] was 68, the SPOT intensity [2] was 90 and the SPOT intensity [3] was 10. For the same binder, the SPOT intensity [4] was 0, the SPOT intensity [5] was 35 and the SPOT intensity [6] was 522. It also gave an SPOT intensity [7] of 76, an SPOT intensity [8] of 27 and an SPOT intensity [9] of 1190. The SPOT intensity [10] was 2, the SPOT intensity [11] was 13 and the SPOT intensity [12] was 3. It also gave an SPOT intensity [13] of 155, an SPOT intensity [14] of 219 and an SPOT intensity [15] of 43. The SPOT intensity [16] was 6, the SPOT intensity [17] was 0 and the SPOT intensity [18] was 18. The SPOT intensity [19] was 26, the SPOT intensity [20] was 259 and the SPOT intensity [21] was 4. The SPOT intensity [22] was 800, the SPOT intensity [23] was 26 and the SPOT intensity [24] was 0. The SPOT intensity [25] was 4, the SPOT intensity [26] was 0 and the SPOT intensity [27] was 52.

B6: unnamed (peptide)
chain: WTQRRGPLVVYAEDN
B6 was tested, and the SPOT intensity [1] was 0, the SPOT intensity [2] was 1 and the SPOT intensity [3] was 0. The SPOT intensity [4] was 0, the SPOT intensity [5] was 0 and the SPOT intensity [6] was 0. It also gave an SPOT intensity [7] of 1, an SPOT intensity [8] of 10 and an SPOT intensity [9] of 0. It also gave an SPOT intensity [10] of 0, an SPOT intensity [11] of 2 and an SPOT intensity [12] of 1. It also gave an SPOT intensity [13] of 18, an SPOT intensity [14] of 0 and an SPOT intensity [15] of 1. It also gave an SPOT intensity [16] of 3, an SPOT intensity [17] of 0 and an SPOT intensity [18] of 0. The SPOT intensity [19] was 32, the SPOT intensity [20] was 0 and the SPOT intensity [21] was 0. It also gave an SPOT intensity [22] of 3, an SPOT intensity [23] of 1 and an SPOT intensity [24] of 0. The SPOT intensity [25] was 0, the SPOT intensity [26] was 0 and the SPOT intensity [27] was 0.
